Measured values reported in patent US20200165313A1, “EGF(A) ANALOGUES, PREPARATION, FORMULATIONS AND USES THEREOF” (Novo Nordisk A/S, priority 2017, published 2020).

Molecular target: T1, hPCSK9 (Homo sapiens, UniProt Q8NBP7)
T1 construct: purchased Sino Biologicals, China
Assay: hPCSK9 challenge model (hepatic LDL-R expression in mice, Western Blot)
Assay type: in vivo, mouse
Settings: healthy control 100%, hPCSK9 alone 0%, dose of inhibitor 22 nmol/kg
Protocol: The aim of this study was to show the change in the LDL receptor expression level in mouse liver in response to inhibiting the action of intravenously injected hPCSK9 with an anti-PCSK9 peptide.
Healthy male BalBC or NMRI mice (Charles River, Germany) are injected with an anti-PCSK9 peptide, either s.c. or i.v. 15-120 minutes before injecting hPCSK9 (Sino Biologicals, China) intravenously in the tail vein at a dose of 0.4 mg/kg. Sixty minutes after the injection of hPCSK9, the animals are anaesthetised in isoflurane and euthanised by cervical dislocation. The liver is then quickly excised and snapfrozen in liquid nitrogen. The livers are kept at −80 degrees celsius until analysis.
The proteins were transferred to nitrocellulose membranes (iBlot 2 NC Regular stacks, novex # IB23001) according to manufacturer's instructions (Life Technology). Equal protein transfer was confirmed by Ponceau S (Sigma, P7170) staining of the membranes and the membranes were further blocked in blocking buffer (TBS-T, 2% Tween). […] Quantitative analysis of chemiluminescent signals from Western blots was done with MultiGauge software (Fujifilm).
“Vehicle-vehicle” is the group of healthy controls (baseline level), “vehicle-hPCSK9” is the group injected with hPCSK9 alone.

T1 sequence (Q8NBP7 153-692): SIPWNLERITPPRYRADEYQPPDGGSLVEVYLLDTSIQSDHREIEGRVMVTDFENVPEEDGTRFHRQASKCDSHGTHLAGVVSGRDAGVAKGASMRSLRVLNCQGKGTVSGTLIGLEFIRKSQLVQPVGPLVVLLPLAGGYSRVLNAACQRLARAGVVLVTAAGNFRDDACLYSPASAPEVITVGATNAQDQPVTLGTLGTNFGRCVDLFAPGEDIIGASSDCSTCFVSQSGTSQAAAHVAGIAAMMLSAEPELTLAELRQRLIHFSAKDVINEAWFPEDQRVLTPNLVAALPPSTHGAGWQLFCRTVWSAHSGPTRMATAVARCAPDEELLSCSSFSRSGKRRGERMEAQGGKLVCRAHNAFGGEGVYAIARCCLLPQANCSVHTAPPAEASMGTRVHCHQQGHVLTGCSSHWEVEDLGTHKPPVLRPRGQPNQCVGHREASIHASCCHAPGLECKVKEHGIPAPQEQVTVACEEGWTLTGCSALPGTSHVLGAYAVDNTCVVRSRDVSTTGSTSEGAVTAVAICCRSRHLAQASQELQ

Question: Which Percentage of baseline does the source give for “Alirocumab: anti-PCSK9 antibody, control molecule in the hPCSK9 challenge model” here?
Answer: Its Percentage of baseline is 157%.
